Measured values reported in patent publication KR20210063070A (dated 2021).
Changes are numbered by the printed parent chain. In names and notes the source's numbering stands.

T1: recombinant mouse B7-H3 protein with C-terminal His tag (Sino Biological, 50973-M08H) (mouse, UniProt Q8VE98 29-244)
T1 construct: Bought; also called 마우스 B7-H3
T1 sequence (looked up): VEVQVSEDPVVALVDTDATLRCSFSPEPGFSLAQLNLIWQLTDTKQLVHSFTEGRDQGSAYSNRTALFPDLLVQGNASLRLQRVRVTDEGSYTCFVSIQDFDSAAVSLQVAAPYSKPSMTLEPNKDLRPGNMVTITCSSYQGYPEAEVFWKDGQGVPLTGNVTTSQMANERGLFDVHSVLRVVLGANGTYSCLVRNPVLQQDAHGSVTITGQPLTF

T2: mouse B7-H3 expressed on the surface of mouse cancer cell lines (CT26, B16F10, TC-1) (mouse, UniProt Q8VE98 29-316)
T2 construct: whole, on cells; also called 세포 표면 발현 마우스 B7-H3
T2 sequence (looked up): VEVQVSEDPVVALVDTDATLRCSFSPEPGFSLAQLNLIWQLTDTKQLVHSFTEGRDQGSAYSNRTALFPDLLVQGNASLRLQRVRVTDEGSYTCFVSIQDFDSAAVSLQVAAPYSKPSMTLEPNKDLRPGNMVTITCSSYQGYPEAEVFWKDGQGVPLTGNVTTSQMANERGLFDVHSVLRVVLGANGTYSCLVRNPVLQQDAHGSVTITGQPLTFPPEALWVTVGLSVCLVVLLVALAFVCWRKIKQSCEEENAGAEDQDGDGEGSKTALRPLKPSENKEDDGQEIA

T3: human B7-H3 expressed on the surface of human cancer cell lines (human, UniProt Q5ZPR3 29-534)
T3 construct: whole, on cells; also called 세포 표면 발현 B7-H3; CD276
T3 sequence (looked up): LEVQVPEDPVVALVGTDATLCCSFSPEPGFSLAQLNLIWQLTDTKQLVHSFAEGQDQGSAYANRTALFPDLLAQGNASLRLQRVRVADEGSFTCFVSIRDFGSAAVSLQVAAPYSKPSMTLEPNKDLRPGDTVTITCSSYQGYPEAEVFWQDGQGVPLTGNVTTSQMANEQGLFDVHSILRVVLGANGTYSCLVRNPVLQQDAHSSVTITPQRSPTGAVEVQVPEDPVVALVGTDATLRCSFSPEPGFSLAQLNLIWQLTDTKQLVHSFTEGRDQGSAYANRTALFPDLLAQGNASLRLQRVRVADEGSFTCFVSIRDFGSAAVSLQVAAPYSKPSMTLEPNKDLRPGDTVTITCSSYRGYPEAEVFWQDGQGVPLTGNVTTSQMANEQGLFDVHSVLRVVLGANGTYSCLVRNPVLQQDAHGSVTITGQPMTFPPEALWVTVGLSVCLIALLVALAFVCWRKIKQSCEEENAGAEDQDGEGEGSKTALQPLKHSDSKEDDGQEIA

B1: anti-B7-H3 antibody B5 (full IgG form) (antibody, V domains shown)
VH: EVQLLESGGGLVQPGGSLRLSCAASGFTFSDYAMSWVRQAPGKGLEWVSSISSGSGSIYYADSVKGRFTISRDNSKNTLYLQMNSLRAEDTAVYYCAKNLIPLDYWGQGTLVTVSS
VL: QSVLTQPPSASGTPGQRVTISCSGSSSNIGSNAVSWYQQLPGTAPKLLIYYNSHRPSGVPDRFSGSKSGTSASLAISGLRSEDEADYYCGSWDASLNAYVFGGGTKLTVLG
B2: anti-B7-H3 antibody C4I (full IgG form) (antibody, V domains shown)
VH: B1 VH with D31G, A33Y, S50L, S53P, G54S, N99G, I101T, P102K, L103F
VL: B1 VL with S23T, A33D, Y51A, A94D, N97S, A98G
B3: anti-B7-H3 antibody F6V (full IgG form) (antibody, V domains shown)
VH: EVQLLESGGGLVQPGGSLRLSCAASGFTFSDYAMSWVRQAPGKGLEWVSGISPGGSNTYYADSVKGRFTISRDNSKNTLYLQMNSLRAEDTAVYYCAKDAWIARLLLFDYWGQGTLVTVSS
VL: B1 VL with S35T, S53N, H54K, S91T, A94D, N97S, A98G
B4: anti-B7-H3 antibody D8G (full IgG form) (antibody, V domains shown)
VH: EVQLLESGGGLVQPGGSLRLSCAASGFTFSSYSMSWVRQAPGKGLEWVSGIYSDGSNTYYADSVKGRFTISRDNSKNTLYLQMNSLRAEDTAVYYCAKMLHRFDYWGQGTLVTVSS
VL: B1 VL with A33S, S35T, Y51A, N52D, H54Q, S91T, A94S
B5: anti-B7-H3 antibody 10F11 (full IgG form) (antibody, V domains shown)
VH: B4 VH with S33G, D54G, N57S, T58K, M99N, L100R, H101L
VL: B1 VL with S23T, A33S, S35T, Y51S, N52D, S91T

Molecular target: T1, recombinant mouse B7-H3 protein with …
Assay: ELISA, IgG on coated recombinant mouse B7-H3-His

Binding result, binds:
B1, B2, B3, B4, B5

Molecular target: T2, mouse B7-H3 expressed on the surface of …
Assay: flow cytometry on CT26, B16F10 and TC-1 cells, 10 ㎍/㎖

Binding result, binds:
B1, B2, B3, B4, B5

Molecular target: T3, human B7-H3 expressed on the surface of …
Assay: flow cytometry on human cancer cell lines that express B7-H3

Binding result, binds:
B1, B2, B3, B4, B5
